PMC10182041, “A first-in-class inhibitor of Hsp110 molecular chaperones of pathogenic fungi” (Nature Communications, 2023)

Biological target: T1, Msi3, the sole Hsp110 of Candida albicans (Candida albicans, UniProt Q96VB9 1-701)
T1 construct: Msi3 (Hsp110) of Candida albicans; ORF amplified from genomic DNA and cloned into the pSMT3 vector; source: E. coli Rosetta2(DE3)pLysS, purified (HisTrap, Ulp1 cleavage, second HisTrap, HiTrap Q); not shown: His6, N-terminal, cleaved; Smt3, N-terminal, cleaved
T1 sequence (looked up): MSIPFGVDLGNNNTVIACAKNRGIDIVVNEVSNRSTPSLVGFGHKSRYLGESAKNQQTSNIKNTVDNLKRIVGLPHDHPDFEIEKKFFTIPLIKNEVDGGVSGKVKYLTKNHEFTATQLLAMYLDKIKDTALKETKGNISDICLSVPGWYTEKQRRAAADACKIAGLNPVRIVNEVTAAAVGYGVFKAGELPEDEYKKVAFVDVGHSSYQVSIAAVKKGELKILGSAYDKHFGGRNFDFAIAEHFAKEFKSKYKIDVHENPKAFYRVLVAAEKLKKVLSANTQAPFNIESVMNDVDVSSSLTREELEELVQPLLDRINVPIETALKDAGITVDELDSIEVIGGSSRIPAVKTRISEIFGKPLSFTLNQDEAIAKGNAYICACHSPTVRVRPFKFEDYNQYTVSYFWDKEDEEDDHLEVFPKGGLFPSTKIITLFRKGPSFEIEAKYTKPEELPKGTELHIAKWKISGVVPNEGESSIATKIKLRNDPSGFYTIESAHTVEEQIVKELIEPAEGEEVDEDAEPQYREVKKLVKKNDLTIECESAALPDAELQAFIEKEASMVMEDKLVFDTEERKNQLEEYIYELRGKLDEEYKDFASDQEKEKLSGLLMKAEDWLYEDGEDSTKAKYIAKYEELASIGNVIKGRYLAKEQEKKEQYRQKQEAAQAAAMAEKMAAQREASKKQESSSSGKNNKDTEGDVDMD
Assay: native gel or EMSA; Msi3 (5 uM) and Ssa1 (10 uM) mixed with 2 mM ATP in buffer D (25 mM Hepes-KOH pH 7.5, 50 mM KCl, 10 mM Mg(OAc)2, 1 mM DTT), 45 min on ice; 10% native gel, Coomassie; with or without 100 uM 2H
Conditions: both partners purified

B1: Ssa1, the major cytosolic Hsp70 of S. cerevisiae (natural protein)
chain: not shown
notes: Ssa1, Hsp70 from Saccharomyces cerevisiae; source: Pichia pastoris GS115, purified (HiTrap Q, butyl-Sepharose, ATP agarose)
binding result: binds
